This is an account of results in US11965030 (Sanofi, dated 2024).

Numbering of substitutions follows the chain as printed. Names may count otherwise.

B1: GITR (Q38K-Q39E)-(CH1: T192E; CK: N137K, S114A) × OX40 (Q38E-Q39K)-(CH1: L143Q, S188V; CK: V133T, S176V) (closed) (bispecific antibody)
light 1: EIVMTQSPATLSVSPGERATLSCKASQNVGTNVAWYQKKPGQAPRLLIYSASYRYSGIPARFSGSGSGTEFTLTISSLQSEDFAVYYCQQYNTDPLTFGGGTKVEIKRTVAAPAVFIFPPSDEQLKSGTASVVCLLKNFYPREAKVQWKVDNALQSGNSQESVTEQDSKDSTYSLSSTLTLSKADYEKHKVYACEVTHQGLSSPVTKSFNRGEC
heavy: not shown
light 2: not shown
notes: Tandem Fab; also called T3
B2: OX40 (CH1: L143Q, S188V; CK: V133T, S176V) × GITR (CH1: T192E; CK: N137K, S114A) (closed) (bispecific antibody)
light 1: not shown
heavy: not shown
light 2: B1 light 1 with K38Q
notes: Tandem Fab; also called T4
B3: GITR (CH1: T192E; CK: N137K, S114A) × OX40 (CH1: L143Q, S188V; CK: V133T, S176V) (open) (bispecific antibody)
light 1: B1 light 1 with K38Q
heavy: not shown
light 2: not shown
notes: Tandem Fab; LC-2 as printed is the light chain that elsewhere goes with PD1 (EIVLTQ...SSNWPRT), not the OX40 light chain; also called T6
B4: OX40 (CH1: L143Q, S188V; CK: V133T, S176V) × GITR (CH1: T192E; CK: N137K, S114A) (open) (bispecific antibody)
light 1: not shown
heavy: not shown
light 2: B1 light 1 with K38Q
notes: Tandem Fab; also called T8
B5: OX40 (Q38E-Q39K)-(CH1: L143Q, S188V; CK: V133T, S176V) × GITR (Q38K-Q39E)-(CH1: T192E; CK: N137K, S114A) (open) (bispecific antibody)
light 1: not shown
heavy: not shown
light 2: B1 light 1
notes: Tandem Fab; also called T9
B6: GITR (Q38K-Q39E)-(CH1: T192E; CK: N137K, S114A) × OX40 (Q38E-Q39K)-(CH1: L143Q, S188V; CK: V133T, S176V) (open) (bispecific antibody)
light 1: B1 light 1
heavy: not shown
light 2: not shown
notes: Tandem Fab; also called T7
B7: OX40 (Q38E-Q39K)-(CH1: L143Q, S188V; CK: V133T, S176V) × GITR (Q38K-Q39E)-CH1: T192E; CK: N137K, S114A) closed) (bispecific antibody)
light 1: not shown
heavy: not shown
light 2: B1 light 1
notes: Tandem Fab; also called T5
B8: CD40 (CH1: L143Q, S188V; CK: V133T, S176V) × PD-L1 (CH1: T192E; CK: N137K, S114A) (closed) (bispecific antibody)
light 1: DIQMTQSPSSVSASVGDRVTITCRASQGIYSWLAWYQQKPGKAPNLLIYTASTLQSGVPSRFSGSGSGTDFTLTISSLQPEDFATYYCQQANIFPLTFGGGTKVEIKRTVAAPAVFIFPPSDEQLKSGTASVVCLLKNFYPREAKVQWKVDNALQSGNSQESVTEQDSKDSTYSLSSTLTLSKADYEKHKVYACEVTHQGLSSPVTKSFNRGEC
heavy: not shown
light 2: not shown
notes: Tandem Fab; also called T13
B9: PD-L1 (Q38E-Q39K)-(CH1: L143Q, S188V; CK: V133T, S176V) × OX40 (Q38K-Q39E)-(CH1: T192E; CK: N137K, S114A) (open) (bispecific antibody)
light 1: not shown
heavy: not shown
light 2: B8 light 1 with Q38K
notes: Tandem Fab; also called T18
B10: PD-L1 (Q38K-Q39E)-(CH1: T192E; CK: N137K, S114A) × CD40 (Q38E-Q39K)-(CH1: L143Q, S188V; CK: V133T, S176V) (open) (bispecific antibody)
light 1: not shown
heavy: not shown
light 2: B8 light 1
notes: Tandem Fab; also called T16
B11: CD40 (Q38E-Q39K)-(CH1: L143Q, S188V; CK: V133T, S176V) × PD-L1 (Q38K-Q39E)-(CH1: T192E; CK: N137K, S114A) (closed) (bispecific antibody)
light 1: not shown
heavy: not shown
light 2: B8 light 1 with Q38K
notes: Tandem Fab; also called T14
B12: CD40 (Q38E-Q39K)-(CH1: L143Q, S188V; CK: V133T, S176V) × PD-L1 (Q38K-Q39E)-(CH1: T192E; CK: N137K, S114A) (open) (bispecific antibody)
light 1: B8 light 1 with Q38K
heavy: not shown
light 2: not shown
notes: Tandem Fab; also called T26
B13: CD40 (CH1: L143Q, S188V; CK: V133T, S176V) × PD-L1 (CH1: T192E; CK: N137K, S114A) (open) (bispecific antibody)
light 1: B8 light 1
heavy: not shown
light 2: not shown
notes: Tandem Fab; also called T17
B14: CD40 (Q38E-Q39K)-(CH1: L143Q, S188V; CK: V133T, S176V) × PD-L1 (Q38K-Q39E)-(CH1: T192E; CK: N137K, S114A) (closed) (bispecific antibody)
light 1: B8 light 1 with Q38K
heavy: not shown
light 2: not shown
notes: Tandem Fab; Same printed name as T14; also called T22
B15: anti-CD40 × anti-PD-L1 Y-shaped antibody Y30 (bispecific antibody)
light 1: B8 light 1 with A114S, K137N
heavy 1: not shown
heavy 2: not shown
light 2: not shown
notes: CD40 arm wild type (knob); PD-L1 arm S114A,E123K,N137K / T192E,K221E (hole)

The first experiment deals with T1, OX40 (UniProt P43489 29-216).
T1 construct: construct not described
T1 sequence (looked up): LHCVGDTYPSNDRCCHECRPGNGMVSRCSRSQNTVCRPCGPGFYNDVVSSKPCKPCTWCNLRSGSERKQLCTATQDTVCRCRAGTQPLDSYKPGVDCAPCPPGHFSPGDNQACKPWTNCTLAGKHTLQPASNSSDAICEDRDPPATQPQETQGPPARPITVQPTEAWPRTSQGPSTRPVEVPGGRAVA
Briefly: SPR (Biacore 3000), column 'Affinity'.
Consider B1, for which the Kd was determined as 0.3 nM. The molecule B2 returned a dissociation constant Kd of 0.2 nM. Consider B3, for which the binding result is on record as “no binding”. Take B4: the Kd came to 0.3 nM.

Molecule B5 came in with a Kd of 0.2 nM. Still for that read-out and setting: with B6 the figure was 1 nM; with B7, 0.2 nM.

The next experiment deals with T2, CD40 (UniProt P25942 21-193, limits assumed).
T2 construct: construct not described
T2 sequence (P25942 21-193 limits assumed): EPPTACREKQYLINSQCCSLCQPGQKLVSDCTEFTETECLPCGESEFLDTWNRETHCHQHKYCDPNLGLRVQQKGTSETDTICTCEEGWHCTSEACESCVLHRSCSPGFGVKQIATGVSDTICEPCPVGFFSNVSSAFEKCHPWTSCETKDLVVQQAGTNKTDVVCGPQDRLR
Briefly: SPR (Biacore 3000), column 'Affinity'.
For the molecule B8, the Kd was determined as 2.4 nM. Still for that read-out and setting: with B9 the figure was 2.1 nM. On the same count and under the same terms, the figure for B10 is 4 nM; for B11 it is 2.4 nM; for B12 it is 1.6 nM. Still for that read-out and setting: with B13 the figure was 3.1 nM.

For the molecule B14, the Kd is 1.7 nM.

The target in the next experiment is T3, PD-L1 (UniProt Q9NZQ7 19-239, limits assumed).
T3 construct: construct not described; also called Programmed Cell Death Ligand 1 (PD-L1)
T3 sequence (Q9NZQ7 19-239 limits assumed): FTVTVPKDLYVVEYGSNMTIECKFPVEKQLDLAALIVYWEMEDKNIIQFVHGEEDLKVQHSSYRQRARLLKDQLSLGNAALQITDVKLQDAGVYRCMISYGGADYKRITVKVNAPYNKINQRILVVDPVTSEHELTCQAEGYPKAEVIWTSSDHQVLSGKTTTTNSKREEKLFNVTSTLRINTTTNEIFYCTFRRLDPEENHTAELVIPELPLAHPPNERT
Briefly: SPR (Biacore 3000), column 'Affinity'.
B9 came in with a dissociation constant Kd of 0.023 nM.

The molecule B11 returned a dissociation constant Kd of 0.019 nM. B12: the dissociation constant Kd came out at 0.051 nM. Still for that read-out and setting: the figure for B14 is 0.058 nM.

A further experiment deals with T4, GITR (UniProt Q9Y5U5 26-161, limits assumed).
T4 construct: construct not described; also called Glucocorticoid-Induce TNFR-Related Protein (GITR)
T4 sequence (looked up): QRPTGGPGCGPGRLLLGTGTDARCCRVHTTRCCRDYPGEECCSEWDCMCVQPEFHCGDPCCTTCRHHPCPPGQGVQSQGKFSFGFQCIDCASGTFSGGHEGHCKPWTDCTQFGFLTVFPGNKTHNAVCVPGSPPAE
Briefly: SPR (Biacore 3000), column 'Affinity'.
B1: binding was characterised by a dissociation constant (Kd) of 0.3 nM. That is a sub-nanomolar value. Regarding B2, the equilibrium dissociation constant (Kd) was found to be 0.9 nM. As for B3, the dissociation constant (Kd) was 0.5 nM. This Kd is about 1.8-fold lower than that of the molecule before. Turning to B4, the affinity, expressed as Kd, was 0.6 nM. This Kd and that of the molecule before are within 1.5-fold of each other. Still for that read-out and setting: the figure for B5 is 0.6 nM.

With B6, the dissociation constant (Kd) was 0.7 nM. The molecule B7 returned a Kd of 0.7 nM.

For a further experiment, the target named is T2, CD40. Nature of the experiment: SPR.
For the molecule B15, the binding result is “binds”.
